# Test results: article PMC3696110, “Hsp70 Oligomerization Is Mediated by an Interaction between the Interdomain Linker and the Substrate-Binding Domain” (PLoS ONE, 2013)
# Where “and” joins values, the source holds several entries; their conditions need not be identical. Equal entries are not always repeated. Where two headings read alike, the source gives them in different places.
# Legend:
# [1] = system: ∆LSBD641; test: Fluorescence competition assay of dansylated and non-dansylated NR peptide; assay type: binding, human
# Description: Fluorescence competition assay. Samples containing 50 μM ∆LSBD641 and 2 μM dansylated-NR peptide (D-NR) in Tris 50 mM, pH 7.4, 150 mM KCl, 5 mM MgCl2 were incubated in the presence of different concentrations of non-dansylated NR peptide (ND-NR; 0, 50 and 200 μM) for 1h at room temperature and the dansyl fluorescence emission spectrum of each sample was recorded from 400 to 630 nm after excitation at 330 nm. The intensity at the maximum emission wavelength of three different samples for which ten spectra were recorded was averaged, and the fraction of bound D-NR peptide was then determined experimentally from the reduction in the fluorescence signal in relation to the reference sample without ND-NR peptide for which the fraction of bound D-NR peptide is known (83% of the D-NR peptide is bound in this conditions according to the affinity measured by fluorescence titration; see Figure […]
# The fraction of bound D-NR peptide was theoretically calculated for each sample according to a competitive model where the two ligands bind to the same substrate-binding pocket in the chaperone and assuming different values for the affinity of the ND-NR peptide for ∆LSBD641 […]
# fluorescence titration was 8 ± 2 μM).
# From the mass balance of the total protein concentration (PT) in a two-ligands competitive model and substituting the concentration of each complex (PL1 and PL2, corresponding to the complex with D-NR and ND-NR peptide, respectively) by the expression obtained from the definition of the different dissociation constants, a third-order polynomial expression (A·P3 + B·P2 + C·P + D = 0) of the free concentration of protein (P) is obtained, where the coefficients of the different terms are:
# (also on this page, place not known: dansylated - m M excitati on -NR sig nal ND -NR D -NR D -NR D -NR substrate -binding ND -NR K d D -NR ( PT) two -ligands substitut ing ( PL1 D -NR ND -NR third -order (A· P3 D ( P) Tdd TdTddTdTddTTTdd PKKD PKPkKLKLKKCPLLKKBA 21 211221212121 ;;;1 −= −−++=−+++==) […]
# (1 picture or pasted object on this page, not shown here)
# [2] = system: peptide substrates; parameters: method as in PMID 10876246; conditions: two different peptide substrates; ref [3]; cited from earlier work
# [3] = cited from earlier work; for Protein in oligomeric state: ref [30]
# Excerpt: It has been shown, for example, that up ...
# [4] = Analytical SEC relative populations of oligomeric forms; assay type: physicochemical, human; conditions: Superdex 75, 4 °C; for Dimer population / Monomer population / Total oligomer population: 50 mM Tris pH 7.4, 150 mM KCl
# Description: Analytical SEC was performed at 4 °C using a Superdex 75 10/300 GL column (GE Healthcare LifeSciences, Little Chalfont, U.K.), which had previously been calibrated using a mixture of standard proteins (Gel Filtration LMW Calibration Kit; GE Healthcare LifeSciences, Little Chalfont, U.K.). Typically, samples of the various constructs contained 70 µM of protein in 50 mM Tris buffer at pH 7.4, with 150 mM KCl, 5 mM MgCl2 and were incubated for 15 min (unless otherwise specified) at room temperature before being loaded onto the column for analysis. To evaluate the reversibility of the oligomerization process, the different elution peaks obtained for each protein variant were subsequently analyzed after concentrating the different fractions using AmiconUltra-0.5, Ultracel-3 Membrane, 3 kDa (Millipore, Bedford, MA, USA). A similar analysis was also performed at 6 µM concentration for all the protein variants to allow for a direct comparison between the results obtained by SEC and MS experiments.
# The influence of substrate binding on the oligomerization properties of all the variants was examined by using the well-characterized Hsp70 substrate, the NR peptide (NRLLLTG, Genemed Synthesis Inc., San Antonio, TX, USA). A 14-fold excess of the peptide was added in each case to a fresh protein sample, incubated for 1 h at room temperature, unless otherwise specified, and then loaded onto the Superdex 75 10/300 GL column for analysis. The relative quantities of the different protein species were estimated by analysing the chromatographic profile using a Gaussian function for each elution peak (OriginPro 8, Originlab, Northampton, MA, USA) and measuring the relative area under each peak.
# [5] = nESI-MS relative populations of oligomeric forms; assay type: physicochemical, human; conditions: 6-15 µM protein, 150 mM ammonium acetate, pH 7.4, estimated error 5% (SD of 3-4 independent experiments)
# Description: Prior to MS analysis, samples were buffer exchanged into 150 mM ammonium acetate, pH 7.4, using Micro Bio-spin 6 columns (Bio-Rad, Digilab Division, Cambridge, MA, USA). For all the experiments protein concentrations ranging from 6 to 18 µM were used. In the case of the substrate binding experiments, proteins were analyzed in the presence of a 1: 1 molar ratio of the NR peptide; this substrate concentration, lower than in the SEC experiments, was chosen to ensure adequate resolution of the various charge state series, which is critical for unambiguous assignment of substrate-bound states. Due to suppression effects during nESI ionization, a relatively limited set of molar ratios could be investigated by in this way.
# nESI-MS spectra were obtained according to a previously published protocol on an orthogonal time-of-flight mass spectrometer with a Z-spray source (LCT, Waters, Manchester, UK) in positive ion mode using the following parameters: capillary voltage, 1500 V; sample cone voltage, 120 V (unless otherwise specified); extraction cone voltage, 1V; and ion transfer stage pressure, 8.8 mbar. Spectra were calibrated externally using a 33 mg/ml solution of cesium iodide. Data were acquired and processed with MassLynx software (Waters, Manchester, UK), and are shown with minimal smoothing and without background subtraction. The relative abundances of the different oligomeric states were estimated from the intensities of the most abundant charge states for each construct and are expressed as a percentage of the total intensity.
# [6] = Secondary structure content from far-UV CD; assay type: physicochemical, human; conditions: K2D software; 20 µM protein, 7 mM Tris pH 7.4, 170 mM KCl, 5 mM MgCl2; 25 °C
# Description: Far-UV CD spectra for all protein variants were recorded using a Jasco J-810 spectropolarimeter equipped with a Peltier holder, using a 0.1 cm path length cuvette. Typically, samples contained 20 µM protein in 7 mM Tris buffer at pH 7.4, containing 170 mM KCl and 5 mM MgCl2. The far-UV CD spectra of all the variants in their native, thermally denatured and refolded states were recorded from 198 to 250 nm, and the spectrum of the buffer was systematically subtracted from the spectra of all protein samples. The secondary structure content was estimated from the far-UV CD spectrum for each protein variant using K2D software.
# [7] = Thermal denaturation monitored by far-UV CD; assay type: physicochemical, human
# Description: Protein structural stability was analyzed by monitoring the CD signal at 222 nm upon thermal denaturation. Thermal runs were performed from 5 to 90 °C at a rate of 1 °C. min^-1. Data points were acquired every 0.1 °C with a response time of 2 s and a bandwidth of […]. After thermal denaturation, each protein sample was cooled to the starting temperature, and a second denaturation curve recorded in order to analyse the degree of reversibility of the denaturation process. Analysis of the thermal unfolding curves was performed assuming a three-state unfolding model.
# [8] = 70 µM protein, 5 mM MgCl2, 15 min at room temperature, estimated error 3.5% (SD of 3-4 independent experiments)
# [9] = 6-15 µM protein, 5 mM MgCl2, estimated error 3.5% (SD of 3-4 independent experiments)
Substance,"Dimer population [4, 8] [%]","Monomer population [4, 8] [%]","Dimer population [4, 9] [%]","Monomer population [4, 9] [%]","Total oligomer population [4, 9] [%]",Monomer population [5] [%],Trimer population [5] [%],Random-coil content estimated from far-UV CD [6] [%],α-helix content estimated from far-UV CD [6] [%],β-sheet content estimated from far-UV CD [6] [%],also measured
dansylated NR peptide: NR peptide N-terminally labeled with dansyl fluorophore,–,–,–,–,–,–,–,–,–,–,"Fraction of bound dansylated NR peptide, ∆LSBD641:ND-NR 1:1, experimentally determined ([1]; 50 μM ∆LSBD641, 2 μM D-NR, 50 μM ND-NR, Tris 50 mM pH 7.4, 150 mM KCl, 5 mM MgCl2, 1 h room temperature, average of three samples): 0.62 ± 0.1; Fraction of bound dansylated NR peptide, ∆LSBD641:ND-NR 1:4, experimentally determined ([1]; 50 μM ∆LSBD641, 2 μM D-NR, 200 μM ND-NR, Tris 50 mM pH 7.4, 150 mM KCl, 5 mM MgCl2, 1 h room temperature, average of three samples): 0.35 ± 0.1; D-NR peptide bound ([1]; 50 μM ∆LSBD641, 2 μM D-NR, no ND-NR, according to affinity from fluorescence titration): 83%; Affinity of dansylated vs non-dansylated NR peptide ([1]; fluorescence competition assay): essentially the same affinity"
"DnaK 2-538: DnaK mutant protein lacking the C-terminal 100 residues, i.e. helices C-E and part of helix B",–,–,–,–,–,–,–,–,–,–,Association rate constants vs wild type DnaK [2]: unaffected; Dissociation rate constants vs wild type DnaK [2]: considerable increase
DnaK: bacterial Hsp70 homologue,–,–,–,–,–,–,–,–,–,–,Protein in oligomeric state ([3]; 0.5 mg/ml (ca. 7 µM)): approximately 20%; Protein in oligomeric state ([3]; 16 mg/ml (ca. 230 µM)): 70%
"FL-Hsp70: full-length human Hsp70 1A, GenBank ID NP005336, recombinant N-hexa-His-tagged",7,93,1,99,1,98,0,32,45,23,"Oligomeric species ([4]; 220 µM protein, 50 mM Tris pH 7.4): 35%; Total oligomer population [5]: 2%"
"SBD556: truncated human Hsp70 (384-556), lacks helices C, D and E and C-terminal disordered region; L542Y mutation",7,93,3,97,3,82,2,54,21,25,"∆Hm, 1st transition ([7]; CD 222 nm, 20 µM protein, 7 mM Tris pH 7.4, 170 mM KCl, 5 mM MgCl2, three-state fit (C-term two-state), SE of fit): 63.9 ± 1.9 kcal/mol; ∆Hm, 2nd transition ([7]; CD 222 nm, 20 µM protein, 7 mM Tris pH 7.4, 170 mM KCl, 5 mM MgCl2, three-state fit, SE of fit): 85.4 ± 2.6 kcal/mol; Tm, 1st transition ([7]; CD 222 nm, 5 to 90 °C at 1 °C/min, 20 µM protein, 7 mM Tris pH 7.4, 170 mM KCl, 5 mM MgCl2, three-state fit (C-term two-state), SE of fit): 46.8 ± 0.1 °C; Tm, 2nd transition ([7]; CD 222 nm, 5 to 90 °C at 1 °C/min, 20 µM protein, 7 mM Tris pH 7.4, 170 mM KCl, 5 mM MgCl2, three-state fit, SE of fit): 64.5 ± 0.1 °C and 64.5 ± 0.2 °C; Reversibility of thermal unfolding ([7]; far-UV CD, second denaturation curve after cooling): fully reversible; Total oligomer population [4, 8]: 7%; Dimer population [5]: 16%"
BiP/Grp78: endoplasmic reticulum resident Hsp70 chaperone,–,–,–,–,–,–,–,–,–,–,"Molecules existing as oligomers ([3]; in mammalian cells, ref [29]): 40-50%; Molecules existing as oligomers ([3]; in vitro, ca. 5 µM protein, ref [28]): 40-50%"
